Data taken from patent EP4755916A1 (Jiangsu Hengrui Pharmaceuticals Co., Ltd., dated 2026).
Numbering of substitutions follows the chain as printed. Numbers in names are those of the source. Like-named read-outs stand apart in the source and are kept apart here.

B1: 17G4-H5L3 (antibody, human IgG1, kappa, V domains shown)
VH: EQQLVESGGGLVQPGGSLRLSCAASGFSLNDYYITWVRQAPGKGLEWIGVIYGSSNTVYASWAKGRFTISKTSTMVYLQMNSLRAEDTAVYFCARGYLASSADIWGQGTLVTVSS
VL: DQQLTQSPSSLSASVGDRVTITCQSSQSVYNNNRLAWYQQKPGKPPKLLIYDASTLASGVPSRFSGSGSGTDFTLTISSLQPEDVATYYCQTYYSGYIWAFGGGTKVEIKR
notes: Humanized; human IgG1 constant region with L234F/L235E/P331S and human Ckappa; also called 17G4's humanized antibody
B2: 20A3-H2L2 (antibody, human IgG1, kappa, V domains shown)
VH: EVQLVESGGGLVQPGGSLRLSCAASGFTINNYYMNWVRQAPGKGLEWVSIIYGSDNTYYASWAKGRFTISKDNSKNTVYLQMNSLRAEDTAVYYCVRNLDYSSAYFHIWGQGTLVTVSS
VL: B1 VL with Q2I, S25A, D52E, T55K, T92G, Y97F, W99Y, A100P
notes: Humanized; human IgG1 constant region with L234F/L235E/P331S and human Ckappa; also called 20A3's humanized antibody
B3: 17G4 (a human-rabbit chimeric antibody, parent) (antibody, human IgG1, kappa, V domains shown)
VH: QSLEESGGRLVTPGTPLTLTCTASGFSLNDYYITWVRQAPGKGLEWIGVIYGSSNTVYASWAKGRFTISKTSTMVDLRITSPTTEDTATYFCARGYLASSADIWGPGTLVTVSL
VL: QVLTQTPSPVSAAVGGTVTINCQSSQSVYNNNRLAWYQQKPGQPPKLLIYDASTLASGVPSRFKGSGSGTDFTLTISDLECADAATYYCQTYYSGYIWAFGGGTEVVVKR
notes: Rabbit variable regions on the human IgG1 constant region with L234F/L235E/P331S (Eu numbering) and human Ckappa
B4: 20A3 (a human-rabbit chimeric antibody, parent) (antibody, human IgG1, kappa, V domains shown)
VH: QSVEESGGRLVTPGTPLTLTCTASGFTINNYYMNWVRQAPGKGLEWIGIIYGSDNTYYASWAKGRFTISKTSTTVDLIMTSPTTEDTATYFCVRNLDYSSAYFHIWGPGTLVTVSS
VL: QVLTQTPSPVSAAVGGTVSISCQASQSVYNNNRLAWYQQKPGQPPNLLIYEASKLASGVPSRFKGSGSGTQFTLIISEVQCEDAATYYCQGYYSGFIYPFGGGTEVVVKR
notes: as for B3

Columns and labels:
[1] = biological target: T1, human BTN3A1 expressed on HEK293 cells (human, UniProt O00481 30-513); test: flow cytometry, HEK293 cells overexpressing human BTN3A1
T1 construct: whole, on cells; also called BTN3A1-expressing HEK293 cells; human BTN3A1-overexpressing cells

[2] = biological target: T1, human BTN3A1 expressed on HEK293 cells; test: flow cytometry, HEK293 cells (endogenous BTN3A knocked out) overexpressing human BTN3A1
[3] = biological target: T2, human BTN3A2 overexpressed on HEK293 cells (human, UniProt P78410 30-334); test: flow cytometry, HEK293 cells (endogenous BTN3A knocked out) overexpressing human BTN3A2
T2 construct: whole, on cells; HEK293 cells with endogenous BTN3A knocked out; also called human BTN3A2-overexpressing cells

[4] = biological target: T3, human BTN3A3 overexpressed on HEK293 cells (human, UniProt O00478 30-584); test: flow cytometry, HEK293 cells (endogenous BTN3A knocked out) overexpressing human BTN3A3
T3 construct: whole, on cells; HEK293 cells with endogenous BTN3A knocked out; also called human BTN3A3-overexpressing cells

[5] = biological target: T4, human BTN3A1 recombinant protein with his tag (h-BTN3A1-his) (human, UniProt O00481 30-254); test: SPR Biacore 8K, antibody captured on Protein A chip, BTN3A1 as analyte, 1:1 Langmuir fit
T4 construct: range 30-254; Bought from Kactus; also called human BTN3A1 antigen protein (Kactus Biosystems, BTN-HM1A1); not shown: his tag

[6] = biological target: T4, human BTN3A1 recombinant protein with …; test: ELISA, plate coated with h-BTN3A1-his, antibody titrated
[7] = biological target: T1, human BTN3A1 expressed on HEK293 cells; test: flow cytometry, HEK293 cells (endogenous BTN3A knocked out) overexpressing human BTN3A1; remark: listed apart in the source
[8] = biological target: T4, human BTN3A1 recombinant protein with …; test: SPR Biacore 8K, antibody captured on Protein A chip, BTN3A1 as analyte, 1:1 Langmuir fit; remark: listed apart in the source

T4 sequence (O00481 30-254 limits assumed): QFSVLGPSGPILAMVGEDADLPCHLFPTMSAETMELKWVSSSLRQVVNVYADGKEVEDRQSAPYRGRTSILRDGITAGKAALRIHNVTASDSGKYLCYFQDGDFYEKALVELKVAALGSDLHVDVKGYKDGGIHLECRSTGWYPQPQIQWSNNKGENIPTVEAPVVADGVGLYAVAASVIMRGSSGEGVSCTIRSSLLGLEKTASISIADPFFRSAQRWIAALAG
T1 sequence (O00481 30-513): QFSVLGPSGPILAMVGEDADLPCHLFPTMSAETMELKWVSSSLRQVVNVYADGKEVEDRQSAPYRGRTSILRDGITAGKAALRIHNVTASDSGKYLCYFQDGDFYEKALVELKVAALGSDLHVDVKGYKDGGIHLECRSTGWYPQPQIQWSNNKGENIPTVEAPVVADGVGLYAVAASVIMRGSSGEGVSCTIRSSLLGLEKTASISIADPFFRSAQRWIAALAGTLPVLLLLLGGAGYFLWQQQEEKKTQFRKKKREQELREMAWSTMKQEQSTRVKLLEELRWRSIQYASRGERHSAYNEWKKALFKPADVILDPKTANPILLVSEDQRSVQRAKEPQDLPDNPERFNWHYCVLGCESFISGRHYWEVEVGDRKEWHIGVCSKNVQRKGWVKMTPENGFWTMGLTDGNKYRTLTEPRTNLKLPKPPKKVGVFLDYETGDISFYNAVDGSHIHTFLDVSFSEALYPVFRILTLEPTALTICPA
T3 sequence (O00478 30-584): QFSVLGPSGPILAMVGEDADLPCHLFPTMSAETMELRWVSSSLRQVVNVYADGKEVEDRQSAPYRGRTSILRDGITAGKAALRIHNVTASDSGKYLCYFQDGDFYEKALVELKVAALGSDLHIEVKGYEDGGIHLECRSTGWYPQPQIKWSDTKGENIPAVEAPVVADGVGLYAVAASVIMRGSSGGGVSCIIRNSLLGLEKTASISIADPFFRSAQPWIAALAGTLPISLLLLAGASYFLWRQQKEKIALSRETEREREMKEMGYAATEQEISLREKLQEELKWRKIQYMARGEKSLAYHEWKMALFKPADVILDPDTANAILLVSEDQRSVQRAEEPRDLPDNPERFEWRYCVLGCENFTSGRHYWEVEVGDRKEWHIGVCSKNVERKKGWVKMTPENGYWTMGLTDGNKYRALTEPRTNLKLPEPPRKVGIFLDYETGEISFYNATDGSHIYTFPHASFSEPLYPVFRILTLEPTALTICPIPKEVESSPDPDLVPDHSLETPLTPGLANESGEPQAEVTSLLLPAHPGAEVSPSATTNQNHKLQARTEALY
T2 sequence (P78410 30-334): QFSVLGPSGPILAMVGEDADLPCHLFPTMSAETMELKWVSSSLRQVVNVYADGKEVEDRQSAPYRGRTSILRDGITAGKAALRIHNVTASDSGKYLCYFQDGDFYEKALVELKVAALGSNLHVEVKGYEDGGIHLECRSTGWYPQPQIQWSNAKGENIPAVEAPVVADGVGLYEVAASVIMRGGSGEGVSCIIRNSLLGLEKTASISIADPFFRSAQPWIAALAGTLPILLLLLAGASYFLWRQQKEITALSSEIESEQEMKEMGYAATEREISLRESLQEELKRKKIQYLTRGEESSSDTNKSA

Row | Binder | EC50 [1] [nM] | Max FACS mean fluorescence intensity (MFI) [1] [MFI] | EC50 [2] [nM] | EC50 [3] [nM] | EC50 [4] [nM] | Kd [5] [nM] | koff [5] [s⁻¹] | kon [5] [M⁻¹ s⁻¹] | EC50 [6] [nM] | EC50 [7] [nM] | Kd [8] [nM] | koff [8] [s⁻¹] | kon [8] [M⁻¹ s⁻¹]
1 | B1 | 19.8 | 89700 |  |  |  |  |  |  |  |  |  |  | 
2 | B2 | 10.2 | 91200 | 2.98 | 6.76 | 5.12 | 0.174 | 0.000172 | 985000 |  |  |  |  | 
3 | B3 | 17.4 | 98000 |  |  |  |  |  |  | 0.0228 | 15.4 | 0.228 | 0.000182 | 800000
4 | B4 | 11.7 | 95800 |  |  |  |  |  |  | 0.0196 | 8.2 | 0.174 | 0.000172 | 985000
